Measured values reported in the supplement of paper PMC9170038.

Tested on: MS2 coat protein
Test: apparent KD of MS2 coat protein, switch ON state; designed switch direction (-1 OFF switch, 1 ON switch): 1; higher = weaker reporter binding
Settings: FMN input: 0 or 200 uM; Eterna round: R93 (includes R88 designs)
Outline: (§1)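 Designed RNA switches were transcribed on-chip from Illumina sequencing clusters. SNAP-549-labelled MS2 coat protein was titrated onto them in twofold steps from 0.7 or 1.5 nM to 3 µM in 100 mM Tris-HCl pH 7.5, 80 mM KCl, 4 mM MgCl2, either without or with constant ligand. Apparent KD reflects the per-design median of normalised cluster binding-curve fits.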

First: GGGAGACAUGAGGAUCACCCAUGUGAGAAGAGGCGAGGAUAUCGAAAAAAAAAAAAAAAACGAGAAGGCGCGAGAC [salish99-SS1-006]
Second: AAAUAAAUGACUAAGGAUAUUUCAGAGAAAACAUGAGGAUCACCCAUGUAAUAAUAAAAAGGGUGAAAGAAGGUAGUCAACAAAC [74%, More Paria 4]
The “apparent KD of MS2 coat protein” value of the first is 2-fold higher: 33.6 nM for the first, 17.1 nM for the second.

“AUAUAUAUAAGGUAGGAUAUUCUAAAGUAAACAUGAGGAUCACCCAUGUAAAGAAAGAAACUCAUGGAGAAGGACCAUAUAUAUA [Modifying Tesla's highscorer (77%) - Adding G segment]” and “AUAAAUAAAGUUAAGGAUAUUAUAAAGAAAACAUGAGGAUCACCCAUGUAAAAGAAAAUAGUGGGUAAGAAGGUAACAAAUAAAU [SS2 M 18]” are within 1.5-fold of each other in “apparent KD of MS2 coat protein” value: 19.9 nM for the first, 23.1 nM for the second.

“AUAACACAUGAGGAUCACCCAUGUAGAUACAAGUCAGGAUAUGCAACCUCAUGAAAAAAAGCAGAAGGGACAAUAA [SS 1 Tesla 3]” and “AAAUAAAUGACUAAGGAUAUAUCAAAGAAAACAUGAGGAUCACCCAUGUAAUAAUAAAAAGGGUGAUAGAAGGUAGUCAACAAAC [74%, More Paria 4]” are within 1.5-fold of each other in “apparent KD of MS2 coat protein” value: 27.5 nM for the first, 23.7 nM for the second.

Compared with “AGUCAACAUGAGGAUCACCCAUGUCUGAGGGCAUGAGGAUAUCUAGAUGGGCAGCAUGAUAGAGAAGGCAUGCGCC [Betea]”, “AUAAAACAUGAGGAUCACCCAUGUAGAAAUAUGGGAGGAUAUACAAGGACGAAAGUCAAGGUAGAAGGCCUAAAAG [Mat - Same State 1 - Meechl mod - D119]” is 7.4-fold lower in “apparent KD of MS2 coat protein” value: 185 nM for the first, 25 nM for the second.

First: CGAAAGGAGAGAGAGGAUAUCCAAAGGAAAACAUGAGGAUCACCCAUGUAGAAGGUAGGAGAUUGGGAGAAGGCUCAAGCAAAAC [salish99-ss2-157]
Second: GAGCCGCGGGCACAGGAUAUGCUCGGGCAAACAUGAGGAUCACCCAUGUGCGGCCUAAAUACGACGCAGAAGGGUGCUUGUGUGU [Lausisan]
The “apparent KD of MS2 coat protein” value of the first is 2.3-fold lower: 15.9 nM for the first, 36.5 nM for the second.

Going from “CGGUAAGAGAGAGAGGAUAUCCAAAGGAAAACAUGAGGAUCACCCAUGUAGAAGGUAGGAAAUUGGGAGAAGGCUCAAGAGAGAG [salish99-ss2-133]” to “AGAAAACAUGAGGAUCACCCAUGUCAGAAAUGGCAAGGAUAUAGAAAAGAAAAAGAAAAACUAGAAGGUGCAAAAG [Meechl SS1 R2 m2]”, the “apparent KD of MS2 coat protein” value rises from 58.4 nM to 187 nM (3.2-fold).

Going from “CGCCAAUUGGCACAGGAUAUGAGCAUGCUCACAUGAGGAUCACCCAUGUGAUUAACAACGCAAUAUCAGAAGGGUGCCCUCAUCA [Leonon]” to “AAAAAAGAUCGCGAGGAUAUCCGAGUGGUAACAUGAGGAUCACCCAUGUGAAGAAAGGAACAUGAGGAGAAGGCGCGAUCAAAAA [viburnum 5]”, the “apparent KD of MS2 coat protein” value falls from 50.3 nM to 10.9 nM (4.6-fold).

First: AAGAAACAUGAGGAUCACCCAUGUAAAUAAAACACAGGAUAUCGAAUAUGGGAGAUUUAACGAGAAGGGUGAAGAA [Meechl MS2 SS1 3]
Second: ACUAUACAUGAGGAUCACCCAUGUCAGGUGGGACUAGGAUAUCAUAAGCCAGAGUAAGAAUGAGAAGGAGUAGAAA [JR_SS001_Sub306]
The “apparent KD of MS2 coat protein” value of the first is 4-fold lower: 36 nM for the first, 143 nM for the second.

In the case of “GACAAACAUGAGGAUCACCCAUGUAGAAAUAUGGGAGGAUAUACACAGACGAAAGUCAAAGUAGAAGGCCUAAAAG [77%, Mat - Mod of Eli - With 2 more C's]”, the “apparent KD of MS2 coat protein” value is reported as 28.5 nM.

Tested on: MS2 coat protein
Test: apparent KD of MS2 coat protein, switch OFF state (with FMN for OFF switches, without FMN for ON switches); designed switch direction (-1 OFF switch, 1 ON switch): 1; higher = weaker reporter binding
Settings: FMN input: 0 or 200 uM; Eterna round: R93 (includes R88 designs)
Outline: as §1

“GAAGACAUAGUUCAGGAUAUAGGAAUAGUCACAUGAGGAUCACCCAUGUGCAUUUAUAUGCGCACUUAGAAGGGAGGUAGUUAAU [Mat - Same state - Malcolm Mod - D120]” and “AAGAAACAUGAGGAUCACCCAUGUAAGAUAAACACAGGAUAUGCGAAAUAAAUAAAUAAAGCAGAAGGGUGAAGAA [Mat - Same State 1 - Tesla mod - D149]” are within 1.5-fold of each other in “apparent KD of MS2 coat protein” value: 26.8 nM for the first, 19.4 nM for the second.

Compared with “AGGAAACAUGAGGAUCACCCAUGUAAAAAUAUGGAAGGAUAUGGAAACACGAAAGUGAAACCAGAAGGUCUGAAAA [77%, Mat - Mod of Eli, 20]”, “AUAUAUAUAAGGUAGGAUAUACUAAAGUAAACAUGAGGAUCACCCAUGUAAAGAAAGAAACUCAUGUAGAAGGACCAUAUAUAUAU [Ex 6 sub 1]” is 7-fold higher in “apparent KD of MS2 coat protein” value: 23.3 nM for the first, 163 nM for the second.

First: AUAAAUAAAGAUCAGGAUAUUAUAAAGAUAACAUGAGGAUCACCCAUGUAAAACAAAAUUAUGGGUAAGAAGGGAUCAAAUAAAU [SS2 M 20]
Second: GAGAAGGAGAGAGAGGAUAUCCAAAGGAAAACAUGAGGAUCACCCAUGUAAAAGGUAGGAAAUUGGGAGAAGGCUCAAGAGAGAG [salish99-ss2-108(!)]
The “apparent KD of MS2 coat protein” value of the first is 5.4-fold higher: 184 nM for the first, 34.3 nM for the second.

Compared with “GGGAGACAUGAGGAUCACCCAUGUGAGAAGAGGCGAGGAUAUCGAAAAAAAAAAAAAAAACGAGAAGGCGCGAGAC [salish99-SS1-006]”, “AAAUAAAUGACUAAGGAUAUUUCAGAGAAAACAUGAGGAUCACCCAUGUAAUAAUAAAAAGGGUGAAAGAAGGUAGUCAACAAAC [74%, More Paria 4]” is 2.3-fold lower in “apparent KD of MS2 coat protein” value: 94.5 nM for the first, 41 nM for the second.

Going from “AUAUAUAUAAGGUAGGAUAUUCUAAAGUAAACAUGAGGAUCACCCAUGUAAAGAAAGAAACUCAUGGAGAAGGACCAUAUAUAUA [Modifying Tesla's highscorer (77%) - Adding G segment]” to “AUAAAUAAAGUUAAGGAUAUUAUAAAGAAAACAUGAGGAUCACCCAUGUAAAAGAAAAUAGUGGGUAAGAAGGUAACAAAUAAAU [SS2 M 18]”, the “apparent KD of MS2 coat protein” value falls from 84.8 nM to 42.7 nM (2-fold).

Compared with “AUAACACAUGAGGAUCACCCAUGUAGAUACAAGUCAGGAUAUGCAACCUCAUGAAAAAAAGCAGAAGGGACAAUAA [SS 1 Tesla 3]”, “AAAUAAAUGACUAAGGAUAUAUCAAAGAAAACAUGAGGAUCACCCAUGUAAUAAUAAAAAGGGUGAUAGAAGGUAGUCAACAAAC [74%, More Paria 4]” is 2.6-fold higher in “apparent KD of MS2 coat protein” value: 85.4 nM for the first, 221 nM for the second.

Compared with “AGUCAACAUGAGGAUCACCCAUGUCUGAGGGCAUGAGGAUAUCUAGAUGGGCAGCAUGAUAGAGAAGGCAUGCGCC [Betea]”, “AUAAAACAUGAGGAUCACCCAUGUAGAAAUAUGGGAGGAUAUACAAGGACGAAAGUCAAGGUAGAAGGCCUAAAAG [Mat - Same State 1 - Meechl mod - D119]” is 1.6-fold lower in “apparent KD of MS2 coat protein” value: 199 nM for the first, 126 nM for the second.

Compared with “CGAAAGGAGAGAGAGGAUAUCCAAAGGAAAACAUGAGGAUCACCCAUGUAGAAGGUAGGAGAUUGGGAGAAGGCUCAAGCAAAAC [salish99-ss2-157]”, “GAGCCGCGGGCACAGGAUAUGCUCGGGCAAACAUGAGGAUCACCCAUGUGCGGCCUAAAUACGACGCAGAAGGGUGCUUGUGUGU [Lausisan]” is 5.5-fold higher in “apparent KD of MS2 coat protein” value: 18.6 nM for the first, 102 nM for the second.

Compared with “CGGUAAGAGAGAGAGGAUAUCCAAAGGAAAACAUGAGGAUCACCCAUGUAGAAGGUAGGAAAUUGGGAGAAGGCUCAAGAGAGAG [salish99-ss2-133]”, “AGAAAACAUGAGGAUCACCCAUGUCAGAAAUGGCAAGGAUAUAGAAAAGAAAAAGAAAAACUAGAAGGUGCAAAAG [Meechl SS1 R2 m2]” is 2.5-fold higher in “apparent KD of MS2 coat protein” value: 61.7 nM for the first, 153 nM for the second.

Going from “CGCCAAUUGGCACAGGAUAUGAGCAUGCUCACAUGAGGAUCACCCAUGUGAUUAACAACGCAAUAUCAGAAGGGUGCCCUCAUCA [Leonon]” to “AAAAAAGAUCGCGAGGAUAUCCGAGUGGUAACAUGAGGAUCACCCAUGUGAAGAAAGGAACAUGAGGAGAAGGCGCGAUCAAAAA [viburnum 5]”, the “apparent KD of MS2 coat protein” value falls from 33.1 nM to 18.7 nM (1.8-fold).

Compared with “AAGAAACAUGAGGAUCACCCAUGUAAAUAAAACACAGGAUAUCGAAUAUGGGAGAUUUAACGAGAAGGGUGAAGAA [Meechl MS2 SS1 3]”, “ACUAUACAUGAGGAUCACCCAUGUCAGGUGGGACUAGGAUAUCAUAAGCCAGAGUAAGAAUGAGAAGGAGUAGAAA [JR_SS001_Sub306]” is 1.7-fold higher in “apparent KD of MS2 coat protein” value: 87.7 nM for the first, 151 nM for the second.

With “GACAAACAUGAGGAUCACCCAUGUAGAAAUAUGGGAGGAUAUACACAGACGAAAGUCAAAGUAGAAGGCCUAAAAG [77%, Mat - Mod of Eli - With 2 more C's]” the “apparent KD of MS2 coat protein” value was 137 nM.
